Test results: the supplement of paper PMC7125110
± gives the standard error. Fewer inactive variants are shown than the library holds.

B1: glmS ribozyme (parent)
chain: AUAAAAGCGCCAGAACUACAGAAAUGUAGUUGACGAGGAGGAGGUUUAUCGAAUUUUCGGCGGAUGCCUCCAAA

Legend:
Settings in all cases: with glucosamine-6-phosphate
glucosamine-6-phosphate [1] = variants of: B1; assay: self-cleavage kobs at 160 uM GlcN6P; higher = faster cleavage; RNA array
Summary of the method: (§1)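 Weighted Michaelis–Menten fits across concentrations supplied kcat and KM, based on kobs from one- or two-exponential decay fits to normalised per-tile medians. The data came from barcoded ribozyme variants transcribed in situ by E. coli RNA polymerase on sequenced MiSeq chips and tracked at 37 °C by a hybridised Cy3 probe. Glucosamine-6-phosphate (40 μM to 10 mM) in HEPES/KCl/Mg(OAc)2 buffer was flowed in.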

glucosamine-6-phosphate [2] = variants of: B1; assay: self-cleavage kobs at 640 uM GlcN6P; higher = faster cleavage; RNA array
Summary of the method: as §1

glucosamine-6-phosphate [3] = variants of: B1; assay: self-cleavage kobs at 2500 uM GlcN6P; higher = faster cleavage; RNA array
Summary of the method: as §1

glucosamine-6-phosphate [4] = variants of: B1; assay: self-cleavage kobs at 10000 uM GlcN6P; higher = faster cleavage; RNA array
Summary of the method: as §1

| Variant | self-cleavage kobs at 160 uM GlcN6P (glucosamine-6-phosphate [1]) | self-cleavage kobs at 640 uM GlcN6P (glucosamine-6-phosphate [2]) | self-cleavage kobs at 2500 uM GlcN6P (glucosamine-6-phosphate [3]) | self-cleavage kobs at 10000 uM GlcN6P (glucosamine-6-phosphate [4]) |
| --- | --- | --- | --- | --- |
| A6C G66C | < 1e-05 s⁻¹ | < 1e-05 s⁻¹ | – | – |
| G51C G59U C71U | < 1e-05 s⁻¹ | – | < 1e-05 s⁻¹ | – |
| A6C G9A U45A | < 1e-05 s⁻¹ | < 1e-05 s⁻¹ | – | – |
| C10G G13U A15C | < 1e-05 s⁻¹ | < 1e-05 s⁻¹ | – | – |
| G9A C11G A12G A15U C16A U30C G32A A48G G59U G60U | < 1e-05 s⁻¹ | – | < 1e-05 s⁻¹ | – |
| A15G A53G U65C | 6.49e-05 ± 1.6e-05 s⁻¹ | 0.000264 ± 6.9e-05 s⁻¹ | 0.000485 ± 0.00011 s⁻¹ | – |
| A6G G7U C34G | < 1e-05 s⁻¹ | < 1e-05 s⁻¹ | < 1e-05 s⁻¹ | – |
| G38U A39G G41C A42U U57C | < 1e-05 s⁻¹ | – | – | – |
| G35A U57A | < 1e-05 s⁻¹ | < 1e-05 s⁻¹ | < 1e-05 s⁻¹ | < 1e-05 s⁻¹ |
| G29A U65A C70U | 7.19e-05 ± 3e-05 s⁻¹ | 8.13e-05 ± 1.7e-05 s⁻¹ | 0.000148 ± 3.6e-05 s⁻¹ | – |
| A15C A33G G44A U47C G62A | < 1e-05 s⁻¹ | – | – | – |
| A33C U69G | < 1e-05 s⁻¹ | – | < 1e-05 s⁻¹ | < 1e-05 s⁻¹ |
| C10G A42G G44C A53G G60U | < 1e-05 s⁻¹ | < 1e-05 s⁻¹ | – | – |
| A39G G43A A48U G51C | < 1e-05 s⁻¹ | < 1e-05 s⁻¹ | < 1e-05 s⁻¹ | – |
| A52G A64C | < 1e-05 s⁻¹ | < 1e-05 s⁻¹ | < 1e-05 s⁻¹ | – |
| G7A G32U G43C | < 1e-05 s⁻¹ | < 1e-05 s⁻¹ | – | – |
| G59C G63U C71A | < 1e-05 s⁻¹ | – | – | – |
| U30G A36U | < 1e-05 s⁻¹ | < 1e-05 s⁻¹ | – | – |
| G9U G62A | < 1e-05 s⁻¹ | < 1e-05 s⁻¹ | < 1e-05 s⁻¹ | < 1e-05 s⁻¹ |
| A15C C16G C67G | < 1e-05 s⁻¹ | – | – | – |
| G41A G59U C71U | < 1e-05 s⁻¹ | < 1e-05 s⁻¹ | < 1e-05 s⁻¹ | – |
| A12C G35U G41U | < 1e-05 s⁻¹ | < 1e-05 s⁻¹ | – | – |
| C10G A36C | < 1e-05 s⁻¹ | < 1e-05 s⁻¹ | < 1e-05 s⁻¹ | – |
| A6U A42C A53C U65G | < 1e-05 s⁻¹ | < 1e-05 s⁻¹ | < 1e-05 s⁻¹ | – |
| G38A A42U A52U C68A | < 1e-05 s⁻¹ | < 1e-05 s⁻¹ | < 1e-05 s⁻¹ | – |

| Variant | self-cleavage kobs at 160 uM GlcN6P (glucosamine-6-phosphate [1]) | self-cleavage kobs at 640 uM GlcN6P (glucosamine-6-phosphate [2]) | self-cleavage kobs at 2500 uM GlcN6P (glucosamine-6-phosphate [3]) | self-cleavage kobs at 10000 uM GlcN6P (glucosamine-6-phosphate [4]) |
| --- | --- | --- | --- | --- |
| G38C G41A G51U | < 1e-05 s⁻¹ | – | < 1e-05 s⁻¹ | – |
| U31A G63C C68G | < 1e-05 s⁻¹ | – | – | – |
| G7U C19U G38U | < 1e-05 s⁻¹ | – | < 1e-05 s⁻¹ | – |
| G44U C58U | < 1e-05 s⁻¹ | < 1e-05 s⁻¹ | < 1e-05 s⁻¹ | < 1e-05 s⁻¹ |
| G9U C61U | < 1e-05 s⁻¹ | < 1e-05 s⁻¹ | – | < 1e-05 s⁻¹ |
| G7A C8U C16A G43C G44U G63U C68U | < 1e-05 s⁻¹ | < 1e-05 s⁻¹ | < 1e-05 s⁻¹ | < 1e-05 s⁻¹ |
| G32A U55G G59C C70G | 6.64e-05 ± 2.6e-05 s⁻¹ | 0.000174 ± 6.5e-05 s⁻¹ | 5.89e-05 ± 2.5e-05 s⁻¹ | – |
| A48C C61G | < 1e-05 s⁻¹ | < 1e-05 s⁻¹ | < 1e-05 s⁻¹ | < 1e-05 s⁻¹ |
| A48C U69A | < 1e-05 s⁻¹ | < 1e-05 s⁻¹ | – | – |
| A14C G51A C58A C68G | 6.87e-05 ± 1.6e-05 s⁻¹ | 8.48e-05 ± 2.9e-05 s⁻¹ | 8.83e-05 ± 2.5e-05 s⁻¹ | – |
| C11A C34U G35C | < 1e-05 s⁻¹ | – | < 1e-05 s⁻¹ | – |
| A14U U47G C68G | 7.2e-05 ± 2.9e-05 s⁻¹ | 0.000125 ± 2.8e-05 s⁻¹ | 5.08e-05 ± 2.3e-05 s⁻¹ | – |
| G26U G35A C50G U56G | 6.16e-05 ± 2.2e-05 s⁻¹ | – | 8.89e-05 ± 1.8e-05 s⁻¹ | – |
| G7A U57A | < 1e-05 s⁻¹ | < 1e-05 s⁻¹ | < 1e-05 s⁻¹ | < 1e-05 s⁻¹ |
| U30A A53U C70U | 0.000167 ± 4.8e-05 s⁻¹ | 0.000821 ± 0.0002 s⁻¹ | – | – |
| G38C G59A | < 1e-05 s⁻¹ | < 1e-05 s⁻¹ | – | – |
| C11A C50G C61U | 0.000476 ± 0.00011 s⁻¹ | 0.000601 ± 0.00018 s⁻¹ | – | – |
| U45G C50G C71U | < 1e-05 s⁻¹ | – | – | – |
| A36C G59A C71G | < 1e-05 s⁻¹ | – | – | < 1e-05 s⁻¹ |
| G13U G44U C68U | < 1e-05 s⁻¹ | < 1e-05 s⁻¹ | < 1e-05 s⁻¹ | – |
| G37A G43U U47C A52C A64U | < 1e-05 s⁻¹ | < 1e-05 s⁻¹ | < 1e-05 s⁻¹ | – |
| C16G A48C G62U | < 1e-05 s⁻¹ | < 1e-05 s⁻¹ | – | – |
| G43A A48C | < 1e-05 s⁻¹ | < 1e-05 s⁻¹ | – | < 1e-05 s⁻¹ |
| G9U A12G U54G | < 1e-05 s⁻¹ | – | – | – |
| U57C G62C | < 1e-05 s⁻¹ | < 1e-05 s⁻¹ | < 1e-05 s⁻¹ | < 1e-05 s⁻¹ |
